Measurements: patent US20120135923A1 (IPSEN PHARMA S A S, published 2012)
Bridge positions count the residues as written; N and C are the ends. Square brackets hold non-standard residues; d marks the D form. Ends that are not written are not given here. 2Nal = N[C@@H](Cc1ccc2ccccc2c1)C(=O)O; d2Nal = N[C@H](Cc1ccc2ccccc2c1)C(=O)O; Bta = N[C@@H](Cc1csc2ccccc12)C(=O)O; hPhe = N[C@@H](CCc1ccccc1)C(=O)O; Cha = N[C@@H](CC1CCCCC1)C(=O)O; dCha = N[C@H](CC1CCCCC1)C(=O)O; Chg = N[C@H](C(=O)O)C1CCCCC1; Pen = CC(C)(S)[C@H](N)C(=O)O; Nle = CCCC[C@H](N)C(=O)O; Ava = NCCCCC(=O)O; GABA = NCCCC(=O)O; βAla = NCCC(=O)O

B1: Ac-Nle-c(Cys-D-Cha-His-D-Phe-Arg-Trp-Cys)-NH2 (peptide)
peptide: Ac-[Nle]C[dCha]H[dF]RWC-NH2
modifications: disulfide 2-8
SMILES: CCCC[C@H](NC(C)=O)C(=O)N[C@H]1CSSC[C@@H](C(N)=O)NC(=O)[C@H](Cc2c[nH]c3ccccc23)NC(=O)[C@H](CCCNC(=N)N)NC(=O)[C@@H](Cc2ccccc2)NC(=O)[C@H](Cc2c[nH]cn2)NC(=O)[C@@H](CC2CCCCC2)NC1=O
B2: Hydantoin(C(O)-(Arg-Gly))-c(Cys-Glu-His-D-Phe-Arg-Trp-Cys)-NH2 (peptide)
peptide: RGCEH[dF]RWC-NH2
modifications: disulfide 3-9; also: hydantoin ring from C(O) with Arg1-Gly2
B3: Hydantoin(C(O)-(Gly-Arg))-c(Cys-Glu-His-D-Phe-Arg-Trp-Cys)-NH2 (peptide)
peptide: GRCEH[dF]RWC-NH2
modifications: disulfide 3-9; also: hydantoin ring from C(O) with Gly1-Arg2
B4: Hydantoin(C(O)-(Gly-Gly))-c(Cys-Glu-His-D-Phe-Arg-Trp-Cys)-NH2 (peptide)
peptide: GGCEH[dF]RWC-NH2
modifications: disulfide 3-9; also: hydantoin ring from C(O) with Gly1-Gly2
B5: Ac-hPhe-c(Asp-His-D-Phe-Arg-Trp-Gaba-Lys)-NH2 (peptide)
peptide: Ac-[hPhe]DH[dF]RW[GABA]K-NH2
modifications: lactam 2-8
B6: Ac-Nle-c(Asp-D-Ala-His-D-Phe-Arg-Bal-Ala-Lys)-NH2 (peptide)
peptide: Ac-[Nle]D[dA]H[dF]R[Bta]AK-NH2
modifications: lactam 2-9
B7: Ac-D-Arg-c(Asp-His-D-Phe-Arg-Trp-Ala-Lys)-NH2 (peptide)
peptide: Ac-[dR]DH[dF]RWAK-NH2
modifications: lactam 2-8
B8: Hydantoin(C(O)-(Arg-Gly))-c(Cys-D-Ala-His-D-2-Nal-Arg-Trp-Cys)-NH2 (peptide)
peptide: RGC[dA]H[d2Nal]RWC-NH2
modifications: disulfide 3-9; also: N-terminal hydantoin: C(O) bridges Arg1 N-alpha and Gly2 N, bridge at N via C(O), other end not in the chain
B9: Ac-Cha-c(Asp-His-D-Phe-Arg-Trp-Gaba-Lys)-NH2 (peptide)
peptide: Ac-[Cha]DH[dF]RW[GABA]K-NH2
modifications: lactam 2-8
SMILES: CC(=O)N[C@@H](CC1CCCCC1)C(=O)N[C@H]1CC(=O)NCCCC[C@@H](C(N)=O)NC(=O)CCCNC(=O)[C@H](Cc2c[nH]c3ccccc23)NC(=O)[C@H](CCCNC(=N)N)NC(=O)[C@@H](Cc2ccccc2)NC(=O)[C@H](Cc2c[nH]cn2)NC1=O
B10: Ac-Nle-c(Asp-His-D-2-Nal-Arg-Trp-Ala-Lys)-NH2 (peptide)
peptide: Ac-[Nle]DH[d2Nal]RWAK-NH2
modifications: lactam 2-8
B11: Ac-c(Cys-Glu-His-D-2-Nal-Arg-2-Nal-Ala-Cys)-Pro-Pro-Arg-Asp-β-[…]NH2 (peptide)
peptide: Ac-CEH[d2Nal]R[2Nal]ACPPRD[βAla]RRRRRQRRR-NH2
modifications: disulfide 1-8
SMILES: CC(=O)N[C@H]1CSSC[C@@H](C(=O)N2CCC[C@H]2C(=O)N2CCC[C@H]2C(=O)N[C@@H](CCCNC(=N)N)C(=O)N[C@@H](CC(=O)O)C(=O)NCCC(=O)N[C@@H](CCCNC(=N)N)C(=O)N[C@@H](CCCNC(=N)N)C(=O)N[C@@H](CCCNC(=N)N)C(=O)N[C@@H](CCCNC(=N)N)C(=O)N[C@@H](CCCNC(=N)N)C(=O)N[C@@H](CCC(N)=O)C(=O)N[C@@H](CCCNC(=N)N)C(=O)N[C@@H](CCCNC(=N)N)C(=O)N[C@@H](CCCNC(=N)N)C(N)=O)NC(=O)[C@H](C)NC(=O)[C@H](Cc2ccc3ccccc3c2)NC(=O)[C@H](CCCNC(=N)N)NC(=O)[C@@H](Cc2ccc3ccccc3c2)NC(=O)[C@H](Cc2c[nH]cn2)NC(=O)[C@H](CCC(=O)O)NC1=O
B12: Ac-c(Cys-Glu-His-D-2-Nal-Arg-Bal-Ala-Cys)-Pro-Pro-Lys-Asp-β-[…]NH2 (peptide)
peptide: Ac-CEH[d2Nal]R[Bta]ACPPKD[βAla]RRKRRQRRR-NH2
modifications: disulfide 1-8
B13: Ac-Nle-c(Asp-His-D-Phe-Arg-Trp-Apn-Lys)-NH2 (peptide)
peptide: Ac-[Nle]DH[dF]RW[Ava]K-NH2
modifications: lactam 2-8
B14: Hydantoin(C(O)-(Nle-Gly))-c(Cys-D-Ala-His-D-Phe-Arg-Trp-Pen)-NH2 (peptide)
peptide: [Nle]GC[dA]H[dF]RW[Pen]-NH2
modifications: disulfide 3-9; also: N-terminal hydantoin: C(O) bridges X1 N-terminal N and G2 backbone N, bridge at N via C(O), other end not in the chain
B15: Hydantoin(C(O)-(Nle-Gly))-c(Cys-Glu-His-D-Phe-Arg-Trp-Cys)-NH2 (peptide)
peptide: [Nle]GCEH[dF]RWC-NH2
modifications: disulfide 3-9; also: N-terminal hydantoin: C(O) bridges X1 N-terminal N and G2 backbone N, bridge at N via C(O), other end not in the chain
B16: Ac-c(Cys-Glu-His-D-2-Nal-Arg-2-Nal-Ala-Cys)-Pro-Pro-Lys-Asp-β-[…]NH2 (peptide)
peptide: Ac-CEH[d2Nal]R[2Nal]ACPPKD[βAla]RRRRRQRRR-NH2
modifications: disulfide 1-8
B17: Ac-Chg-c(Asp-His-D-Phe-Arg-Trp-Gaba-Lys)-NH2 (peptide)
peptide: Ac-[Chg]DH[dF]RW[GABA]K-NH2
modifications: lactam 2-8
B18: Ac-c(Cys-Glu-His-D-2-Nal-Arg-2-Nal-Ala-Cys)-Pro-Pro-Lys-Asp-β-[…]NH2 (peptide)
peptide: Ac-CEH[d2Nal]R[2Nal]ACPPKD[βAla]GRKRRRQRRR-NH2
modifications: disulfide 1-8
B19: Ac-c(Cys-Glu-His-D-Phe-Arg-2-Nal-Ala-Cys)-NH2 (peptide)
peptide: Ac-CEH[dF]R[2Nal]AC-NH2
modifications: disulfide 1-8
B20: c[Hydantoin(C(O)-(Asp-His))-D-2-Nal-Arg-Trp-Lys]-NH2 (peptide)
peptide: DH[d2Nal]RWK-NH2
modifications: lactam 1-6; also: hydantoin ring: N-terminal N of Asp1 and backbone N of His2 bridged by one C(O), bridge at N via C(O), other end not in the chain
B21: Ac-Nle-c(Cys-D-Ile-His-D-Phe-Arg-Trp-Cys)-NH2 (peptide)
peptide: Ac-[Nle]C[dI]H[dF]RWC-NH2
modifications: disulfide 2-8
B22: Ac-Nle-c(Cys-D-Val-His-D-Phe-Arg-Trp-Cys)-NH2 (peptide)
peptide: Ac-[Nle]C[dV]H[dF]RWC-NH2
modifications: disulfide 2-8
B23: Ac-Nle-c(Asp-His-D-Phe-Arg-Trp-Gaba-Lys)-NH2 (peptide)
peptide: Ac-[Nle]DH[dF]RW[GABA]K-NH2
modifications: lactam 2-8
B24: Ac-Nle-c(Cys-D-Ala-His-D-Phe-Arg-Trp-Gly-Cys)-NH2 (peptide)
peptide: Ac-[Nle]C[dA]H[dF]RWGC-NH2
modifications: disulfide 2-9
SMILES: CCCC[C@H](NC(C)=O)C(=O)N[C@H]1CSSC[C@@H](C(N)=O)NC(=O)CNC(=O)[C@H](Cc2c[nH]c3ccccc23)NC(=O)[C@H](CCCNC(=N)N)NC(=O)[C@@H](Cc2ccccc2)NC(=O)[C@H](Cc2c[nH]cn2)NC(=O)[C@@H](C)NC1=O

Tests used:
hMC1-R = target: T1, hMC1-R (human, UniProt Q01726 1-317); assay: competition with [125I]-NDP-α-MSH, CHO-K1 membranes
T1 construct: whole, on cells; Assayed as membranes of CHO-K1 cells expressing the receptor; also called hMC-R receptor subtype 1; melanocyte-specific receptor (MC1-R)
Description: (§1) Cellular membranes used for the in vitro receptor binding assays were obtained from transgenic CHO-K1 cells stably expressing hMC-R receptor subtypes 1, 3, 4 or 5. […] The pellets were resuspended in the same buffer and centrifuged at 50,000 g for 10 minutes at approximately 4° C. The washed pellets containing the cellular membranes were stored at approximately −80° C.
(§2) Competitive inhibition of [¹²⁵I](Tyr²)-(Nle⁴-D-Phe⁷)α-MSH ([¹²⁵I]-NDP-α-MSH, Amersham Biosciences®) binding was carried out in polypropylene 96 well plates. Cell membranes (1-10 μg protein/well) prepared as described above were incubated in 50 mM Tris-HCl at pH 7.4 containing 0.2% bovine serum albumin (BSA), 5 mM MgCl₂, 1 mM CaCl₂ and 0.1 mg/mL bacitracin, with increasing concentrations of the test compound and 0.1-0.3 nM […] for approximately 90-120 minutes at approximately 37° C. Bound [¹²⁵I]-NDP-α-MSH ligand was separated from free [¹²⁵I]-NDP-α-MSH by filtration through GF/C glass fiber filter plates (Unifilter®; Packard) presoaked with 0.1% (w/v) polyethylenimine (PEI), using a Packard Filtermate® harvester. Filters were washed three times with 50 mM Tris-HCl at pH 7.4 at a temperature of approximately 0-4° C. and then assayed for radioactivity using a Packard Topcount® scintillation counter. Binding data were analyzed by computer-assisted non-linear regression analysis (XL fit; IDBS).

hMC4-R = target: T2, hMC4-R (human, UniProt P32245 1-332); assay: as above
T2 construct: whole, on cells; Assayed as membranes of CHO-K1 cells expressing the receptor; also called hMC-R receptor subtype 4; melanocortin-4 (MC4-R)
Description: as §1, §2

hMC3-R = target: T3, hMC3-R (human, UniProt P41968 1-323); assay: as above
T3 construct: whole, on cells; Assayed as membranes of CHO-K1 cells expressing the receptor; also called hMC-R receptor subtype 3; melacortin-3 (MC3-R)
Description: as §1, §2

[1] = target: T4, human melanocortin receptor subtype 1 (hMC1-R) (human, UniProt Q01726 1-317); assay: [125I]-NDP-α-MSH competition, membranes
T4 construct: whole, on cells; membranes of CHO-K1 cells
Description: as §1, §2

[2] = target: T5, human melanocortin receptor subtype 5 (hMC5-R) (human, UniProt P33032 1-325); assay: [125I]-NDP-α-MSH competition, membranes
T5 construct: whole, on cells; membranes of CHO-K1 cells
Description: as §1, §2

[3] = target: T6, human melanocortin receptor subtype 4 (hMC4-R) (human, UniProt P32245 1-332); assay: [125I]-NDP-α-MSH competition, membranes
T6 construct: whole, on cells; membranes of CHO-K1 cells
Description: as §1, §2

hMC5-R = target: T7, hMC5-R (human, UniProt P33032 1-325); assay: competition with [125I]-NDP-α-MSH, CHO-K1 membranes
T7 construct: whole, on cells; Assayed as membranes of CHO-K1 cells expressing the receptor; also called hMC-R receptor subtype 5; melanocortin-5 receptor (MC5-R)
Description: as §1, §2

T5 sequence (P33032 whole entry): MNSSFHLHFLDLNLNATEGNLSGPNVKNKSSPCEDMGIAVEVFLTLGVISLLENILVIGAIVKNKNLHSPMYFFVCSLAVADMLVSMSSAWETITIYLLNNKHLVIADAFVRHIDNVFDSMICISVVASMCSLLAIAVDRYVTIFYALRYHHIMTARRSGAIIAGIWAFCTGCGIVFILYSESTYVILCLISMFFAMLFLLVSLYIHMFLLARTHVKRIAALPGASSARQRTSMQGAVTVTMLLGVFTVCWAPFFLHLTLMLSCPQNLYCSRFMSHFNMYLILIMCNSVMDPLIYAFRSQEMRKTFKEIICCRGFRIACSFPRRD
T7 sequence (P33032 whole entry): as above
T4 sequence (Q01726 whole entry): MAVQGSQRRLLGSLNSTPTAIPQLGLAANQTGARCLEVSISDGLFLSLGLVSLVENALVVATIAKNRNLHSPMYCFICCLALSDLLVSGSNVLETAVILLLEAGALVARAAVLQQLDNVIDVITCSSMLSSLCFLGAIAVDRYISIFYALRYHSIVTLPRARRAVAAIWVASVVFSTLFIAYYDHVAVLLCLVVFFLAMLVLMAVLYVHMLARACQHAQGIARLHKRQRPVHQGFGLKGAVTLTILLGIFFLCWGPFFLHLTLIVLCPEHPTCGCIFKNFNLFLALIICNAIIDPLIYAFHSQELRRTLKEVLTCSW
T1 sequence (Q01726 whole entry): as above
T3 sequence (P41968 whole entry): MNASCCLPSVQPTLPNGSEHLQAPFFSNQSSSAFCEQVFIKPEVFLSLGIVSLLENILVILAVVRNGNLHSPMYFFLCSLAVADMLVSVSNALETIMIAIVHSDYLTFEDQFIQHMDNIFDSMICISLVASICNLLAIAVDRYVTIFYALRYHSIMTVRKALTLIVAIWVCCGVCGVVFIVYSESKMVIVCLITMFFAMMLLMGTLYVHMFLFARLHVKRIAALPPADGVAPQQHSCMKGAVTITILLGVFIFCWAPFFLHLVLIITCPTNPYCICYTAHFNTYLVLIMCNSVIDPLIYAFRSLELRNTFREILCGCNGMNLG
T6 sequence (P32245 whole entry): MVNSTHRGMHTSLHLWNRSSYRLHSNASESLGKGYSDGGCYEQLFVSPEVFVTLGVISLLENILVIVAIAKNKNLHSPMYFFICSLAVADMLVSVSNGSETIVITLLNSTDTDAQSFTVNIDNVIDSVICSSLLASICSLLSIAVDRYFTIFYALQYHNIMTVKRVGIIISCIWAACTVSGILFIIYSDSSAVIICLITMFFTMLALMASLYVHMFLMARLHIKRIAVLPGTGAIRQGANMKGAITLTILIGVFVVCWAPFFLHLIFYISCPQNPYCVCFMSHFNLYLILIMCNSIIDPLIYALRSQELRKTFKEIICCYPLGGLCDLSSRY
T2 sequence (P32245 whole entry): as above

Row | Binder | Ki (hMC1-R) [nM] | Ki (hMC4-R) [nM] | Ki (hMC3-R) [nM] | Ki [1] [nM] | Ki [2] [nM] | Ki [3] [nM] | Ki (hMC5-R) [nM]
1 | B1 | 0.353 | 1.41 | 2.08 |  |  |  | 
2 | B2 |  |  |  | 8.59 | 7760 | 2.44 | 
3 | B3 |  |  |  | 5.68 | 4220 | 2.44 | 
4 | B4 |  |  |  | 11.9 | 73.9 |  | 
5 | B5 |  | 3.37 | 25.2 |  |  |  | 203
6 | B6 | 4.89 | 21.3 |  |  |  |  | 11.1
7 | B7 | 0.79 |  | 45.5 |  |  |  | 493
8 | B8 |  |  |  | 11.9 |  | 0.195 | 
9 | B9 | 0.106 | 1.49 | 11.8 |  |  |  | 110
10 | B10 | 1.17 |  |  |  |  |  | 
11 | B11 |  |  |  | 2.63 | 11.6 | 0.0737 | 
12 | B12 |  |  |  | 3 | 15.5 | 0.442 | 
13 | B13 | 0.999 | 11.1 | 300 |  |  |  | 431
14 | B14 |  |  |  | 12.9 | 27.1 | 3.53 | 
15 | B15 |  |  |  | 14.3 | 67.8 |  | 
16 | B16 |  |  |  | 2.48 | 9.17 |  | 
17 | B17 | 0.884 | 22.5 | 223 |  |  |  | 609
18 | B18 |  |  |  | 5.66 | 6.23 | 0.446 | 
19 | B19 | 262 | 96.4 |  |  |  |  | 1460
20 | B20 |  |  |  | 200 |  |  | 
21 | B21 | 4.28 | 9 |  |  |  |  | 12.5
22 | B22 | 13 |  | 104 |  |  |  | 40
23 | B23 | 0.0506 | 1.04 | 9.89 |  |  |  | 16.3
24 | B24 |  | 3.01 | 149 |  |  |  | 339
